Ten molecules from patent publication US11198713B2, “Agents modulating beta-catenin functions and methods thereof” (FOG PHARMACEUTICALS, INC., priority 2017, dated 2021) can be followed below.

Bridge positions count the residues as written; N and C are the ends. Square brackets hold non-standard residues; d marks the D form. MB = Monomer B = PyrS, Alloc-pyrrolidine stapling residue (allyl carbamate on pyrrolidine N); MI = Monomer I = ReN, acyclic amine-bearing olefin stapling residue; MD = Monomer D = SgN, acyclic Alloc-amine olefin stapling residue; MG = Monomer G = RdN, acyclic alkyl-N(Alloc) stapling residue; R8 = C=CCCCCCC[C@@](C)(N)C(=O)O; R5 = C=CCCC[C@@](C)(N)C(=O)O; βAla = NCCC(=O)O

In test [1] the target is T1, full-length beta-catenin (UniProt P35222 2-781, limits assumed).
T1 construct: mature; also called full-length ß-Catenin; β-catenin
T1 sequence (looked up): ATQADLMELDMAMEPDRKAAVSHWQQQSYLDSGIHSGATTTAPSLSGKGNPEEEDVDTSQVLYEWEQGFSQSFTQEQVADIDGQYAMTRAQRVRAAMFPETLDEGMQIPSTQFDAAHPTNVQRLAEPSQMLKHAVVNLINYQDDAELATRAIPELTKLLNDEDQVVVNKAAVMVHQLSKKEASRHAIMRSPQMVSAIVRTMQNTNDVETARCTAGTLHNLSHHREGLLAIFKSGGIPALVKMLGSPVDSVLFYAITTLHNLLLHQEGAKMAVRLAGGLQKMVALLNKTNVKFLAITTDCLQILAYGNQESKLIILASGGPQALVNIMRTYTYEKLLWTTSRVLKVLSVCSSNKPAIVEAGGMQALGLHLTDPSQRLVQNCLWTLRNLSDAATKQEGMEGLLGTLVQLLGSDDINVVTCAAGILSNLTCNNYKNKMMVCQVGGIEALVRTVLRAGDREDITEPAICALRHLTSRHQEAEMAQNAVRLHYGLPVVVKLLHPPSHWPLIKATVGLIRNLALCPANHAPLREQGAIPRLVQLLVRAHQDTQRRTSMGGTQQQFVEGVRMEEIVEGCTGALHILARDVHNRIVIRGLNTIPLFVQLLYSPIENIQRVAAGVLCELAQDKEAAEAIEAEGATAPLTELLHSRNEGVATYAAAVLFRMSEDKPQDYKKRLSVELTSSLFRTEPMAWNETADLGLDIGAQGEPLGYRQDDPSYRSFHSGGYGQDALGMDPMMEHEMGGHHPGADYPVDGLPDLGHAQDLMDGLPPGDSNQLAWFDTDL
Description: competition FP, grade of FP EC50 (+++: <=100 nM). The protocol: (§1) In some embodiments, a competition fluorescence polarization assay is used to assess binding of provided compounds to beta-catenin. In an exemplary procedure, solutions of provided compounds, e.g., provided stapled peptides, were prepared in a buffer (e.g., 50 mM Tris pH 8.0, 250 mM NaCl, 2% glycerol, 0.5 mM EDTA, 0.02% w/v sodium azide) using a 3-fold serial dilution from 5 µM. Probe solution (15 nM full-length ß-Catenin, 20 nM FITC labeled peptide in buffer) was prepared and incubated for a period of time, e.g., 5 minutes, and the a volume, e.g., 40 µL per well plated in suitable plate, e.g., a black polystyrene 384-well plate (Corning). Equal volume of the serial diluted peptide was added to the plate and incubated protected from light for 15 minutes prior to read. Reads were performed on a Spectramax M5 (Molecular Devices) in duplicate. Suitable probe was FITC-PEG1-PQ-S5-ILD-S5-HVRRVWR (SEQ ID NO: 1) (hydrocarbon staple formed by two S5 via olefin metathesis) and/or FITC-bA-PQ-S5-ILD-S5-HVRRVWR (SEQ ID NO: 3) (hydrocarbon staple formed by two S5 via olefin metathesis). […] Another peptide, FPO217c (Ac-AR_8ILDAHIM$B5$RVW (SEQ ID NO: 280), with N-terminal proline removed and valine replaced with isoleucine compared to FP0025c) was prepared.

Test [2] addresses T2, biotinylated beta-catenin (UniProt P35222 134-665, limits assumed, biotinylated (site not stated)).
T2 construct: also called beta-catenin (SPR); armadillo domain of β-catenin
T2 sequence (looked up): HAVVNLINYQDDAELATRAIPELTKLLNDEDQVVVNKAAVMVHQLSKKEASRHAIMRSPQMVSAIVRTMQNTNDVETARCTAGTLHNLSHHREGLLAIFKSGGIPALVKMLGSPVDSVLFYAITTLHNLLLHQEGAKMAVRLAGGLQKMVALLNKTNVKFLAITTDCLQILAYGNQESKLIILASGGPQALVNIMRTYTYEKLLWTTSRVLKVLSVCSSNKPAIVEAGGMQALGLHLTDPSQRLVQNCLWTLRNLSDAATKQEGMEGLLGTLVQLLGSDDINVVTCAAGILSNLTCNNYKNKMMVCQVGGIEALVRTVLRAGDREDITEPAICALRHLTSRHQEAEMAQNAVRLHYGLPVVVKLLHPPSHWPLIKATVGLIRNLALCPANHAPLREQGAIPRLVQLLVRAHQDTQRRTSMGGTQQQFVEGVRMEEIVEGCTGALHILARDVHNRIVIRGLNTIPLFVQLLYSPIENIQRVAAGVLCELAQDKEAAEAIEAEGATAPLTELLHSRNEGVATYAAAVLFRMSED
The experiment in a line: SPR (Biacore, biotinylated beta-catenin). The protocol: (§2) Additionally or alternatively, binding to beta-catenin may be measured by Surface Plasmon Resonance. In an exemplary assay, approximately 6 nmol dried peptide diluted in buffer (50 mM Tris pH 8.0, 300 mM NaCl, 2% glycerol, 0.5 mM TCEP, 0.5 mM EDTA, 0.005% Tween-20, 1 mg/mL CM Dextran, 0.02% w/v sodium azide) was assayed on a Biacore X100 using the Biacore Biotin CAPture Kit (GE Healthcare) and biotinylated beta-catenin. Results were analyzed using the Biacore X100 Evaluation Software.

Test [3] has as its target T2, biotinylated beta-catenin. The experiment in a line: Table 3 'Binding Kd (nM)'; method not stated there (SPR in Example 2). The protocol: as §2
Test [4] concerns the target T1, full-length beta-catenin. Description: Axin competition fluorescence polarization; 15 nM full-length beta-catenin, 20 nM FITC-StAx-33 probe displaced by titrated peptide.
The target in test [5] is T1, full-length beta-catenin. Description: competition FP; amino staple (acyclic). The protocol:
as §1

Test [6] has as its target T1, full-length beta-catenin. The experiment in a line: competition FP, grade of FP EC50 (+: 500-5000 nM). In short, it runs like this: (§3)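 Compound 3-fold serially diluted from 5 µM in Tris pH 8.0, 250 mM NaCl buffer, added to premixed 15 nM full-length β-catenin and 20 nM FITC-labelled stapled axin-site peptide probe. Incubated 15 min in the dark, polarization read in duplicate.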

The target in test [7] is T1, full-length beta-catenin. The experiment in a line: competition FP, grade of FP EC50 (+: 500-5000 nM); competition FP vs FITC probe, 15 nM full-length beta-catenin, peptide diluted from 5 µM; grade + (500-5000 nM EC50). The protocol:
as §1

Test [8] deals with T1, full-length beta-catenin. The experiment in a line: competition FP, grade of FP EC50 (++: 100-500 nM). Summed up:
as §3

The target of test [9] is T1, full-length beta-catenin. Description: competition FP. The protocol: as §1

Turning to AXILDAHIXRVW (not fully specified; Ac-A-MG-I-L-D-A-H-I-MB-R-V-W-NH2; carbamate staple MG/MB) [FP0597c], the “FP EC50” value with full-length beta-catenin [1] was ≤ 100 nM. Further, the Kd in test [2] and in [3] was 4 nM each time. Also, in the test with full-length beta-catenin [4], the “EC50 (read off the curve)” value was ~60 nM.

B1: FP0776a (peptide)
peptide: Ac-PQ[R5]ILD[MG]HVRRVWR-NH2
modifications: staple 3-7; also: amino staple (-N(R')-), from carbamate staple by metathesis then Pd(0) CO2 extrusion
notes: also called FP-0776 (amino staple)
Molecule B1 returned an EC50 with full-length beta-catenin [5] of 580 nM. Moreover, in the test with full-length beta-catenin [6], the “FP EC50” value was 500 to 5000 nM.
As for H-[βAla]A[R8]ILDAHI[MB]RVW-NH2 (staple 3-10) [FP0217c_bAfree], in the test with full-length beta-catenin [1], the “FP EC50” value is ≤ 100 nM. Further, the Kd in test [2] worked out at 9 nM.

B2: FP0783a (peptide)
peptide: Ac-PQ[MI]ILD[R5]HVRRVWR-NH2
modifications: staple 3-7; also: amino staple (-N(R')-), from carbamate staple by metathesis then Pd(0) CO2 extrusion
notes: also called FP-0783 (amino staple)
As to B2, the EC50 with full-length beta-catenin [5] was 1400 nM. Besides, the “FP EC50” value with full-length beta-catenin [6] lay in the range of 500 to 5000 nM.
AXILDAHIXRVW (not fully specified; Ac-A-R6-I-L-D-A-H-I-MF-R-V-W-NH2; amino staple R6/MF) [FP0502a]: the “FP EC50” value with full-length beta-catenin [7] was in the range of 500 to 5000 nM.

B3: FP0777a (peptide)
peptide: Ac-PQ[R5]ILD[MI]HVRRVWR-NH2
modifications: staple 3-7; also: amino staple (-N(R')-), from carbamate staple by metathesis then Pd(0) CO2 extrusion
notes: also called FP-0777 (amino staple)
Turning to B3, a half-maximal response with full-length beta-catenin [5] (EC50) required 4750 nM. Further, in the test with full-length beta-catenin [6], the “FP EC50” value lay within 500 to 5000 nM.
Regarding AXILDAHIXRVW (not fully specified; Ac-A-MI-I-L-D-A-H-I-S5-R-V-W-NH2; amino staple MI/S5) [FP0506a], the “FP EC50” value in the test with full-length beta-catenin [7] lay within 500 to 5000 nM.
Consider AXILDAHIXRVW (not fully specified; Ac-A-R4-I-L-D-A-H-I-MH-R-V-W-NH2; carbamate staple R4/MH) [FP0509c], for which the “FP EC50” value with full-length beta-catenin [1] is ≤ 100 nM. Besides, the Kd in test [2] and in [3] was 3 nM throughout.
Consider Ac-A[R8]ILDAHI[MD]RVW-NH2 (staple 2-9) [FP0338c], for which the “FP EC50” value in the test with full-length beta-catenin [8] lay in the range of 100 to 500 nM. This molecule also had a Kd in test [3] of 10 nM.

B4: FP0217c Isomer 2 (peptide)
peptide: Ac-A[R8]ILDAHI[MB]RVW-NH2
modifications: staple 2-9; also: Isomer 2, staple olefin E/Z not assigned
notes: also called FPO217c isomer 2; FP00217c Isomer 2
For the molecule B4, the “FP EC50” value with full-length beta-catenin [1] is ≤ 100 nM. Moreover, the figures for the Kd in test [2] and in test [3] were 2 nM and 4 nM, respectively. Besides, the “fold better potency than FP0217c Isomer 1” value with full-length beta-catenin [9] was > 10 fold. Also, the “EC50 (read off the curve)” value in the test with full-length beta-catenin [4] is ~70 nM.
